Earlier results in PMC7585440.

Experiments:
[1] = molecular target: LRP6 E1E2 (Homo sapiens) (UniProt O75581); experiment: biolayer interferometry
[2] = molecular target: LRP6 E1 (Homo sapiens) (UniProt O75581); experiment: ITC
Chain of LRP6 E1 (Homo sapiens) (O75581 20-326): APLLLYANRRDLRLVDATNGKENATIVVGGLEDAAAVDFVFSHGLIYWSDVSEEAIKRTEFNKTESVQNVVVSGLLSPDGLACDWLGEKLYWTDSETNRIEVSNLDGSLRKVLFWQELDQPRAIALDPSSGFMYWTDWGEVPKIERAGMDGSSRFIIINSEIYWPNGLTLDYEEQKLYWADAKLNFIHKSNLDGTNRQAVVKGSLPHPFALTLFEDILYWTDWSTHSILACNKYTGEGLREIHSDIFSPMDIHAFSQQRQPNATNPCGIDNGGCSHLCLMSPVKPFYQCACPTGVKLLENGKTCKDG

Chain of SOST loop 2 peptide loop 2 (Q9BQB4 110-130): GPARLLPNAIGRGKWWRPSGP
Chain of LRP6 E1E2 (Homo sapiens) (O75581 20-630): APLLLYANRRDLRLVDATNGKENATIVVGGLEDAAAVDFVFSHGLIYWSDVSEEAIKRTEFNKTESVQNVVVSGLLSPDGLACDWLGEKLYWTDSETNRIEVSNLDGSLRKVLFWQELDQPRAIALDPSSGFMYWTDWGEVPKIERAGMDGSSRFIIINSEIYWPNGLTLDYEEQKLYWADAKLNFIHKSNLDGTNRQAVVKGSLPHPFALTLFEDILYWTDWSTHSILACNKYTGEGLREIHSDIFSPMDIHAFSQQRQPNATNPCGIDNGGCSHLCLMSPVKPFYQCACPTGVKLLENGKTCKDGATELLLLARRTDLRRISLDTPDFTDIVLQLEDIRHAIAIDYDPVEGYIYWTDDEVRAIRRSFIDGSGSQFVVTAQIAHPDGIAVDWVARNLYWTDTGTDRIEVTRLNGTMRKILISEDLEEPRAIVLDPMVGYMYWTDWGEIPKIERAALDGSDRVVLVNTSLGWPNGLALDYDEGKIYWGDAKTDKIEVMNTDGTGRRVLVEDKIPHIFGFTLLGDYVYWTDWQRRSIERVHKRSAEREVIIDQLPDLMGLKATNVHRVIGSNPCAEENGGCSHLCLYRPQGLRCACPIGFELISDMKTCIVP
Chain of SOST (Q9BQB4 24-213): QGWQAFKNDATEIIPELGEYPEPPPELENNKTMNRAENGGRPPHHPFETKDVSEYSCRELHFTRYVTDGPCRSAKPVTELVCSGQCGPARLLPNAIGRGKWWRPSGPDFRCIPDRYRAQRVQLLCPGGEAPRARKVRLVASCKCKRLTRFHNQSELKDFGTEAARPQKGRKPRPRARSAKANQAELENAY

Row | Kd [1] | Kd [2] | Substance
1 | 0.0068 µM |  | SOST (from UniProt Q9BQB4)
2 |  | 9 µM | SOST loop 2 peptide loop 2 (from UniProt Q9BQB4)
